Among the data in the Human Domainome abundance scans (Beltran et al. 2025) are abundance fitness values, retold here.

B1: F-BAR and double SH3 domains protein 1, residues 467 to 528; numbered along this chain, Q86WN1 (parent)
chain: RALPCPAHVVFRYQAGREDELTITEGEWLEVIEEGDADEWVKARNQHGEVGFVPERYLNFPD

± gives the uncertainty stated by the source.

This data set covers variants of B1. Put plainly: abundance fitness (aPCA) (normalised: wild type 0, dead -1); higher = more abundant; growth selection in yeast, the domain comes from the species named. The conditions noted are these: Homo sapiens.
E34N: the abundance fitness was -0.016 ± 0.2.

Take E34I: the abundance fitness is -0.165 ± 0.11. Next, E34A: 0.017 ± 0.061. Turning to E34T, the abundance fitness is -0.048 ± 0.067. Under E34D stands -0.409 ± 0.23; under D38I, -0.066 ± 0.076. Under D38H stands -0.002 ± 0.19.

D38Y: the abundance fitness was -0.122 ± 0.056. Consider D38A, for which the abundance fitness came out at 0.057 ± 0.045.

Regarding D38E, the abundance fitness was 0.101 ± 0.065. Take D38W: the abundance fitness is -0.154 ± 0.071. For C5H, the abundance fitness is -0.145 ± 0.42. Under C5W stands -0.399 ± 0.091; under C5G, -0.386 ± 0.094.

On to C5M, for which the abundance fitness is -0.595 ± 0.1. Next, C5P: -0.857 ± 0.15; L29G: -0.975 ± 0.18; L29C: -0.819 ± 0.24. For the variant L29N, the abundance fitness is -0.577 ± 0.17. Under L29R stands -0.728 ± 0.08; under A7Q, -0.854 ± 0.15. Under A7T stands -0.917 ± 0.18.

For A7M, the abundance fitness is -0.938 ± 0.15. Next, A7E: -0.742 ± 0.32; P61E: -0.111 ± 0.1. Next, P61H: -0.249 ± 0.086. Next, P61Y: -0.303 ± 0.17. P61A: the abundance fitness is -0.03 ± 0.065. Under P61D stands -0.007 ± 0.099.

Turning to P61L, the abundance fitness was 0.004 ± 0.043. Next, D36Q: 0.073 ± 0.062; D36Y: -0.171 ± 0.12. Next, D36K: 0.112 ± 0.075; D36F: 0.005 ± 0.069.

Turning to I23E, the abundance fitness is -0.833 ± 0.13. Under I23T stands -0.227 ± 0.076. On to I23Y, for which the abundance fitness was -0.958 ± 0.17. Next, I23Q: -0.936 ± 0.13; I23S: -0.719 ± 0.064; Q14I: -0.261 ± 0.082. Q14F: the abundance fitness was -0.018 ± 0.056.

For Q14A, the abundance fitness was -0.153 ± 0.063. Next, Q14E: -0.024 ± 0.064; Q14M: -0.121 ± 0.081; H8T: -0.213 ± 0.067.

On to H8D, for which the abundance fitness is -0.282 ± 0.11.

Take H8V: the abundance fitness is -0.349 ± 0.068. Next, H8W: -0.041 ± 0.12.

Turning to G48P, the abundance fitness is -0.623 ± 0.1. Turning to E25K, the abundance fitness was 0.139 ± 0.074. Take E25W: the abundance fitness was -0.373 ± 0.12. E25A: the abundance fitness was -0.129 ± 0.078.

Take E25S: the abundance fitness came to 0.104 ± 0.11. Next, E25T: 0.038 ± 0.095.

As for E25F, the abundance fitness was -0.37 ± 0.16. Next, E25V: -0.154 ± 0.12. Next, E25G: -0.281 ± 0.1. Next, E25R: -0.328 ± 0.079; E25M: -0.297 ± 0.2.

For E20R, the abundance fitness is -0.35 ± 0.053.

On to E20I, for which the abundance fitness was -0.746 ± 0.18.

In the case of E20L, the abundance fitness is -0.769 ± 0.072. Next, E20T: -0.286 ± 0.097. Under E20H stands -0.138 ± 0.13. On to E20V, for which the abundance fitness was -0.626 ± 0.097. Take E20N: the abundance fitness is -0.39 ± 0.3. Take E20K: the abundance fitness was -0.809 ± 0.17. Under E20A stands -0.205 ± 0.064.

For the variant E20Y, the abundance fitness is -0.548 ± 0.17. Under E33V stands -0.587 ± 0.086; under E33T, -0.305 ± 0.071; under E33W, -0.629 ± 0.16. Next, E33S: 0.063 ± 0.048. Next, Y13L: -0.595 ± 0.077; Y13G: -0.463 ± 0.083; Y13S: -0.356 ± 0.059.

As for Y13V, the abundance fitness is -0.785 ± 0.097. Next, Y13K: -0.16 ± 0.094; Y13D: -0.648 ± 0.12. Next, Y13N: -0.38 ± 0.089. Next, E30P: -0.753 ± 0.12. As to E30R, the abundance fitness was -0.474 ± 0.085.

Turning to E30G, the abundance fitness is -0.801 ± 0.09. Under E30C stands -0.307 ± 0.15; under E30S, -0.125 ± 0.065; under W28P, -0.113 ± 0.089. Next, W28T: -0.053 ± 0.081; W28V: 0.107 ± 0.071. Under W28D stands -0.046 ± 0.1; under V53T, -0.868 ± 0.13.

With V53D, the abundance fitness was -0.745 ± 0.12. Under V53M stands -0.673 ± 0.11; under V53I, -0.031 ± 0.085; under V53Q, -0.624 ± 0.1. Next, V53P: -0.922 ± 0.18. Consider V53A, for which the abundance fitness was -0.564 ± 0.081.

With V53S, the abundance fitness is -0.981 ± 0.097.

E27P: the abundance fitness is -0.811 ± 0.14. As for E27W, the abundance fitness was -0.911 ± 0.16.

Turning to E27K, the abundance fitness is -0.369 ± 0.12. For the variant E27F, the abundance fitness was -0.795 ± 0.15.

Turning to E27V, the abundance fitness is -0.81 ± 0.15. Under E27D stands -0.047 ± 0.16; under E27A, -0.711 ± 0.16. Turning to E27T, the abundance fitness was -0.482 ± 0.09.

As to E27C, the abundance fitness is -0.699 ± 0.14. Take V10M: the abundance fitness came out at 0.005 ± 0.079. Next, V10Q: -0.733 ± 0.29; V10Y: -0.118 ± 0.1; V10C: -0.037 ± 0.1. Next, V10D: -0.109 ± 0.13; V10T: -0.167 ± 0.099. Next, T24E: 0.105 ± 0.082; T24Y: -0.153 ± 0.096. In the case of T24F, the abundance fitness was -0.247 ± 0.082. T24D: the abundance fitness amounted to 0.087 ± 0.088. Next, T24S: -0.083 ± 0.051; R56T: 0.005 ± 0.068.

As to R56H, the abundance fitness was -0.118 ± 0.1. Under R56Y stands -0.174 ± 0.078; under R56L, -0.117 ± 0.037. Under R56C stands -0.012 ± 0.12. Under R17S stands -0.016 ± 0.06; under R17N, 0.099 ± 0.13. Take R17A: the abundance fitness was -0.032 ± 0.068. As for R17D, the abundance fitness is -0.173 ± 0.078. Under R17K stands 0.021 ± 0.077; under Q46G, -0.082 ± 0.061.

On to Q46M, for which the abundance fitness is -0.088 ± 0.072.

As to Q46R, the abundance fitness was -0.028 ± 0.047. Next, Q46D: -0.198 ± 0.076; Q46P: -0.334 ± 0.074. Next, Q46F: -0.207 ± 0.1; H47W: -0.176 ± 0.08; H47V: 0.004 ± 0.053. Under H47A stands 0.164 ± 0.06; under F60D, -0.768 ± 0.33.

For F60C, the abundance fitness is -0.275 ± 0.065.

In the case of F60I, the abundance fitness is -0.154 ± 0.069. Under F60N stands -0.531 ± 0.16. Take F60Q: the abundance fitness is -0.778 ± 0.11. In the case of F60T, the abundance fitness was -0.499 ± 0.091. Next, G35E: -0.407 ± 0.089; G35Q: -0.379 ± 0.095; G35P: -0.371 ± 0.079. As for G35H, the abundance fitness was -0.409 ± 0.2. Under G35N stands -0.276 ± 0.11; under G35Y, -0.223 ± 0.11. Under G35S stands -0.07 ± 0.052. As to A37G, the abundance fitness was -0.05 ± 0.079.

For A37P, the abundance fitness was -0.107 ± 0.074. Under A37T stands 0.014 ± 0.071; under A37C, 0.118 ± 0.13. Under Y57T stands 0.07 ± 0.052. Next, Y57M: -0.041 ± 0.063; Y57D: -0.161 ± 0.092.

For the variant Y57I, the abundance fitness is -0.309 ± 0.09. With Y57W, the abundance fitness was -0.281 ± 0.11. Next, Y57S: 0.123 ± 0.058; Y57L: -0.023 ± 0.037; Y57F: -0.006 ± 0.06.

As to R44W, the abundance fitness is -0.947 ± 0.19. Next, R44E: -0.268 ± 0.071.

Turning to R44S, the abundance fitness is -0.253 ± 0.063. Consider R44L, for which the abundance fitness was -0.342 ± 0.048. Next, R44P: -0.673 ± 0.099; R44Y: -0.587 ± 0.13.
